Assay results from PMC10693628, “Novel WYL domain-containing transcriptional activator acts in response to genotoxic stress in rapidly growing mycobacteria” (Communications Biology, 2023).
One block for each molecule: values may come before it.

Experiments:
[1] = molecular target: Sumo-SiwR (His6-TEV-Sumo-linker fused to the N-terminus of SiwR, stress-involved WYL domain-containing regulator, MSMEG_1359) (Mycobacterium smegmatis) (UniProt A0QS56); test: SEC; analytical gel filtration, Superdex 200 Increase 10/300 GL, buffer GF (50 mM HEPES-KOH pH 7.0, 150 mM NaCl, 0.5 mM TCEP, 1 mM EDTA); SiwR 40 uM protomer, MSMEG_1357 or MSMEG_1356 100 uM protomer; incubated at 37 °C for 20 min, run at 0.5 mL/min at room temperature
[2] = molecular target: MSMEG_1356 (DUF664 family protein, DinB/YfiT-like putative metalloenzymes superfamily) (Mycobacterium smegmatis) (UniProt A0QS54); test: as above
[3] = molecular target: MSMEG_1356 (DUF664 family protein, DinB/YfiT-like putative metalloenzymes superfamily) (Mycobacterium smegmatis) (UniProt A0QS54); test: SEC; gel filtration step of the purification, Superdex 75 10/300 GL 24 mL, after dialysis against buffer D (50 mM HEPES-KOH pH 7.0, 150 mM NaCl, 0.5 mM TCEP)
Sumo-SiwR [4] = molecular target: T1, Sumo-SiwR (Mycobacterium smegmatis, UniProt A0QS56 1-320); test: fluorescence anisotropy; EMSA: 5 mM HEPES-KOH pH 7.0, 30 mM NaCl, 2.5% Ficoll 400K, 1% glycerol, 5 nM probe (10 nM in Fig. 2a legend), 37 °C 15 min; anisotropy: 5 mM HEPES-KOH pH 7, 30; details: protein: recombinant, tags: His6-TEV-Sumo N-terminal fusion, chain copies: 2
T1 sequence: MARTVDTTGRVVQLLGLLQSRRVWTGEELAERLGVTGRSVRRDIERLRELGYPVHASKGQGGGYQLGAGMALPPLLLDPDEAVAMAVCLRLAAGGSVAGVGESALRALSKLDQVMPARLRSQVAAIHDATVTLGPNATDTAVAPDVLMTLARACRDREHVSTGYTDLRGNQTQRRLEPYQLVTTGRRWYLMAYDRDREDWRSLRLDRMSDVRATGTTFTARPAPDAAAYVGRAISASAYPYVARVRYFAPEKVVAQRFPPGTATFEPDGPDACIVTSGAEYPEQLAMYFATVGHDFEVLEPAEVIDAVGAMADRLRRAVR

Sumo-SiwR [5] = molecular target: T1, Sumo-SiwR; test: EMSA; EMSA: 5 mM HEPES-KOH pH 7.0, 30 mM NaCl, 2.5% Ficoll 400K, 1% glycerol, 5 nM probe (10 nM in Fig. 2a legend), 37 °C 15 min; anisotropy: 5 mM HEPES-KOH pH 7, 30; details: protein: recombinant; tags: His6-TEV-Sumo N-terminal fusion; chain copies: 2; label: 5'-FAM on strand 1; blunt
Sumo-SiwR R204A-R207A [6] = molecular target: T2, Sumo-SiwR R204A-R207A (Mycobacterium smegmatis, UniProt A0QS56 1-320, R204A;R207A); test: fluorescence anisotropy; EMSA: 5 mM HEPES-KOH pH 7.0, 30 mM NaCl, 2.5% Ficoll 400K, 1% glycerol, 5 nM probe (10 nM in Fig. 2a legend), 37 °C 15 min; anisotropy: 5 mM HEPES-KOH pH 7, 30; details: protein: recombinant; tags: His6-TEV-Sumo N-terminal fusion; chain copies: 2; label: FAM
T2 sequence: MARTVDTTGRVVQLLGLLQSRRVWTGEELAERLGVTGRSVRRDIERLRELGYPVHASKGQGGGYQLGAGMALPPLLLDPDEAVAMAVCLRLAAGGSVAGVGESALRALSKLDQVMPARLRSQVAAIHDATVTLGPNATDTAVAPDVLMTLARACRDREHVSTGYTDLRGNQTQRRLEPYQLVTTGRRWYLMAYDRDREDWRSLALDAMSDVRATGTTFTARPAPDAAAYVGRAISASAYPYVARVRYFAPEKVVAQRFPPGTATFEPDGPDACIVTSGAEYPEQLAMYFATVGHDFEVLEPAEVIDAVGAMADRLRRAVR

Sumo-SiwR R204A-R207A [7] = molecular target: T2, Sumo-SiwR R204A-R207A; test: EMSA; comparable to wild type; EMSA: 5 mM HEPES-KOH pH 7.0, 30 mM NaCl, 2.5% Ficoll 400K, 1% glycerol, 5 nM probe (10 nM in Fig. 2a legend), 37 °C 15 min; anisotropy: 5 mM HEPES-KOH pH 7, 30; details: protein: recombinant; tags: His6-TEV-Sumo N-terminal fusion; chain copies: 2; label: 5'-FAM on strand 2; blunt
Sumo-SiwR [8] = molecular target: T1, Sumo-SiwR; test: fluorescence anisotropy; Kd for SiwR dimer; EMSA: 5 mM HEPES-KOH pH 7.0, 30 mM NaCl, 2.5% Ficoll 400K, 1% glycerol, 5 nM probe (10 nM in Fig. 2a legend), 37 °C 15 min; anisotropy: 5 mM HEPES-KOH pH 7, 30; details: protein: recombinant; tags: His6-TEV-Sumo N-terminal fusion; chain copies: 2; label: 5'-FAM on strand 2; blunt
[9] = molecular target: the molecule itself; test: SEC; analytical gel filtration, Superdex 200 Increase 10/300 GL, buffer GF (50 mM HEPES-KOH pH 7.0, 150 mM NaCl, 0.5 mM TCEP, 1 mM EDTA); SiwR 40 uM protomer, MSMEG_1357 or MSMEG_1356 100 uM protomer; incubated at 37 °C for 20 min, run at 0.5 mL/min at room temperature

- stoichiometry N [1]: 2
Molecule: Sumo-SiwR (His6-TEV-Sumo-linker fused to the N-terminus of SiwR, stress-involved WYL domain-containing regulator, MSMEG_1359) (from UniProt A0QS56 1-320) (natural protein)

- stoichiometry N [2]: 2
- stoichiometry N [3]: 2
Molecule: MSMEG_1356 (DUF664 family protein, DinB/YfiT-like putative metalloenzymes superfamily) (from UniProt A0QS54 1-203) (natural protein)

Molecule: CGTCAGTCCAGT (ssDNA) [12-nt ssDNA]
- Kd (Sumo-SiwR [4]; label: 5'-FAM): 178 nM

Molecule: CGTCAGTCCAGT (ssDNA, 8-oxoguanine at position 6) [12-nt ssDNA 8-oxoG]
- Kd (Sumo-SiwR [4]; label: 5'-FAM): 227 nM

Molecule: CGUCAGUCCAGU (ssRNA) [12-nt ssRNA]
- binding result (Sumo-SiwR [4]): no binding

B1: fragment b (dsDNA)
DNA 1: TCCGGTCCTAAAAGTGCGGCAGACTTGTCGC
DNA 2: GCGACAAGTCTGCCGCACTTTTAGGACCGGA
- binding result (Sumo-SiwR [5]): no binding

Molecule: TTTTTTTTTTTTTTTTTTTT (ssDNA) [polyT20]
- Kd (Sumo-SiwR [4]; label: FAM): 182 nM
- binding result (Sumo-SiwR R204A-R207A [6]): no binding

B2: DNA fork mimic (dsDNA)
DNA 1: CGTCAGTCCAGTATCCGACGACTG
DNA 2: CAGTCGTCGGATTGACCTGACTGC
- Kd (Sumo-SiwR [4]; label: 5'-FAM on strand 1, fork 1:2, 12 bp duplex with 12-nt 5' tail (strand 1) and 12-nt 3' tail (strand 2)): 898 nM

B3: 3' tailed DNA (dsDNA)
DNA 1: GCAGTCAGGTCAATCCGACGACTG
DNA 2: TGACCTGACTGC
- Kd (Sumo-SiwR [4]; label: FAM on strand 1, 12 bp duplex, 3' overhang 12 nt on strand 1): 702 nM

B4: msmeg_1357-56 promoter (dsDNA)
DNA 1: TGACCCACCCTGACAGGCATATAGGACAGTTCCGGTCCTAAAAGTGCGGCAGACTTGTCG
DNA 2: CGACAAGTCTGCCGCACTTTTAGGACCGGAACTGTCCTATATGCCTGTCAGGGTGGGTCA
- binding result (Sumo-SiwR R204A-R207A [7]): binds
- Kd (Sumo-SiwR [8]): 651 nM

B5: fragment a (dsDNA)
DNA 1: GTGACCCACCCTGACAGGCATATAGGACAGT
DNA 2: ACTGTCCTATATGCCTGTCAGGGTGGGTCAC
- binding result (Sumo-SiwR [5]): no binding

B6: MSMEG_1357 (DinB_2 family protein, DinB/YfiT-like putative metalloenzymes superfamily) (natural protein, Mycobacterium smegmatis, UniProt A0QS55 1-175, looked up)
chain: MDIDLIADQLDFHWTHQLRPRLDGLTDDEYFWQPVPGCWTVHADGSIDFSYPEPQPTPFTTIAWRLAHVIVGVLAMRNHSHFGGPPADYQTWPYATDAKTALEQLDDAHRNWITGVRALSEDDLQRPVGPAEGPWADHPMSELVLHINREVIHHGAEIACIRDLYAHTNNTAEEN
notes: MSMEG_1357, DinB_2 family (pfam12867) protein of Mycobacterium smegmatis; expressed from a pET21-His6-TEV-MSMEG_1357 plasmid; The construct name puts His6-TEV before the protein; No TEV cleavage is described; also called His6-TEV-MSMEG_1357
- stoichiometry N [9]: 2

B7: fragment c (dsDNA)
DNA 1: TGACAGGCATATAGGACAGTTCCGGTCCTAAAAGTGCGGC
DNA 2: GCCGCACTTTTAGGACCGGAACTGTCCTATATGCCTGTCA
- binding result (Sumo-SiwR [5]): binds

B8: 5' tailed DNA (dsDNA)
DNA 1: CGTCAGTCCAGT
DNA 2: GTCAGCAGCCTAACTGGACTGACG
- Kd (Sumo-SiwR [4]; label: 5'-FAM on strand 1, 12 bp duplex, 5' overhang 12 nt on strand 2): 306 nM

B9: fragment d (dsDNA)
DNA 1: GGCATATAGGACAGTTCCGGTCCTAAAAGT
DNA 2: ACTTTTAGGACCGGAACTGTCCTATATGCC
- binding result (Sumo-SiwR [5]): binds
